Key:
[1] = biological target: H3 (K9, 14, 18, 23) tetra-acetylated nucleosome (Xenopus laevis)
[2] = biological target: H3 (K9, 14, 18, 23) tetra-acetylated nucleosome (Xenopus laevis); remark: listed apart in the source

RSC complex (from UniProt Q02206 1-625)
initial rate of nucleosome repositioning by RSC relative to the unmodified S28C control (competitive sliding assay, 54A18 DNA, 30 °C, 1 mM ATP) [1]: 16 fold | Km for nucleosomes of ATP hydrolysis by RSC (real-time MDCC-PBP ATPase assay, 0.3 nM RSC, 36W36 nucleosomes), against the unmodified control [2]: 3 fold lower
